Laboratory results published in US8088609 (DANISCO US, dated 2012).
Substitutions are numbered along the chain they refer to.

T1: Purified CEA (Biodesign International) (UniProt P06731 35-685)
T1 construct: Bought purified antigen, immobilized on 96-well plates at 5 ug/ml; also called carcinoembryonic antigen; target protein CEA
T1 sequence: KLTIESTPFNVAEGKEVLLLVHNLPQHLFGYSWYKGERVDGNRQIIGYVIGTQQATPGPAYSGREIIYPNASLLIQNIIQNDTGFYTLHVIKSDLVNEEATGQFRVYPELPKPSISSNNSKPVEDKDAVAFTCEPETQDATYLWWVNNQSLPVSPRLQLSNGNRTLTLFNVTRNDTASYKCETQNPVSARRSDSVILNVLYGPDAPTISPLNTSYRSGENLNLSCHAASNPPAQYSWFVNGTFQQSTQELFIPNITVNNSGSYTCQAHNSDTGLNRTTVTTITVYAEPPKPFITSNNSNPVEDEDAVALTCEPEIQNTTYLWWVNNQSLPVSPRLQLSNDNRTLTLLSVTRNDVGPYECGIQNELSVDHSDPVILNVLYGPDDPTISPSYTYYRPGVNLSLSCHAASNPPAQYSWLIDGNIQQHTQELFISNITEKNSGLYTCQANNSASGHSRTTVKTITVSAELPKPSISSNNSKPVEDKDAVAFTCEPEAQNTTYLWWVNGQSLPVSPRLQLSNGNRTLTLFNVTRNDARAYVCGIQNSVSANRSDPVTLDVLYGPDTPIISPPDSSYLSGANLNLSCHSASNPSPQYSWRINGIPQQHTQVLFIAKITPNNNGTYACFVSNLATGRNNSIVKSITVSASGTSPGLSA

B1: CAB1.11 molecule (scFv)
chain: DIVLTQSPASLSVSLGQRATMSCRAGESVDIFGVGFLHWYQQKPGQPPKLLIYRASNLESGIPVRFSGTGSGTDFTLIIDPVEADDVATYYCQQTNEDPYTFGGGTKLEIKGGGGSGGGGSGGGGSGGGGSGGGGSGGGGSEVQLQQSGAELVEPGASVKLSCTASGFNIKDTYMHWVKQRPEQGLEWIGRIDPANGNSKYVPKFQGKATITADTSSNTAYLQLTSLTSEDTAVYYCAPFGYYVSDYAMAYWGQGTSVTVSSTPVSEKQLAEVVANTITPLMKAQSVPGMAVAVIYQGKPHYYTFGKADIAANKPVTPQTLFELGSISKTFTGVLGGDAIARGEISLDDAVTRYWPQLTGKQWQGIRMLDLATYTAGGLPLQVPDEVTDNASLLRFYQNWQPQWKPGTTRLYANASIGLFGALAVKPSGMPYEQAMTTRVLKPLKLDHTWINVPKAEEAHYAWGYRDGKAVRVSPGMLDAQAYGVKTNVQDMANWVMANMAPENVADASLKQGIALAQSRYWRIGSMYQGLGWEMLNWPVEANTVVETSFGNVALAPLPVAEVNPPAPPVKASWVHKTGSTGGFGSYVAFIPEKQIGIVMLANTSYPNPARVEAAYHILEALQ
notes: scFv-BLA fusion; also called HR14.8; clone HR14.8
B2: CAB1.11i molecule (scFv)
chain: B1 chain with K283A, S586A
notes: Single-chain fusion of a T84.66-derived anti-CEA scFv (vL-(GGGGS)6-vH) to deimmunized beta-lactamase (BLA); also called encoded by plasmid pHR19.2

Tests used:
[1] = target: T1, Purified CEA (Biodesign International); assay: plate assay: CEA immobilized at 5 ug/ml, serially diluted B-Per extract, bound CAB read by nitrocefin hydrolysis at 490 nm
[2] = target: T1, Purified CEA (Biodesign International); assay: plate assay: purified CEA immobilized at 5 ug/ml, 2-fold dilutions of purified CAB1.11i, bound BLA activity read with nitrocefin at 490 nm

Row | Binder | binding result [1] | binding result [2]
1 | B1 | binds | 
2 | B2 |  | binds
